Test results taken from patent US20160009804A1.

Target: vascular endothelial growth factor receptor-1 (VEGFR-1) (human) (UniProt P17948)
Test: cell-based or functional assay

UniProt P17948, sequence (P17948 27-1338): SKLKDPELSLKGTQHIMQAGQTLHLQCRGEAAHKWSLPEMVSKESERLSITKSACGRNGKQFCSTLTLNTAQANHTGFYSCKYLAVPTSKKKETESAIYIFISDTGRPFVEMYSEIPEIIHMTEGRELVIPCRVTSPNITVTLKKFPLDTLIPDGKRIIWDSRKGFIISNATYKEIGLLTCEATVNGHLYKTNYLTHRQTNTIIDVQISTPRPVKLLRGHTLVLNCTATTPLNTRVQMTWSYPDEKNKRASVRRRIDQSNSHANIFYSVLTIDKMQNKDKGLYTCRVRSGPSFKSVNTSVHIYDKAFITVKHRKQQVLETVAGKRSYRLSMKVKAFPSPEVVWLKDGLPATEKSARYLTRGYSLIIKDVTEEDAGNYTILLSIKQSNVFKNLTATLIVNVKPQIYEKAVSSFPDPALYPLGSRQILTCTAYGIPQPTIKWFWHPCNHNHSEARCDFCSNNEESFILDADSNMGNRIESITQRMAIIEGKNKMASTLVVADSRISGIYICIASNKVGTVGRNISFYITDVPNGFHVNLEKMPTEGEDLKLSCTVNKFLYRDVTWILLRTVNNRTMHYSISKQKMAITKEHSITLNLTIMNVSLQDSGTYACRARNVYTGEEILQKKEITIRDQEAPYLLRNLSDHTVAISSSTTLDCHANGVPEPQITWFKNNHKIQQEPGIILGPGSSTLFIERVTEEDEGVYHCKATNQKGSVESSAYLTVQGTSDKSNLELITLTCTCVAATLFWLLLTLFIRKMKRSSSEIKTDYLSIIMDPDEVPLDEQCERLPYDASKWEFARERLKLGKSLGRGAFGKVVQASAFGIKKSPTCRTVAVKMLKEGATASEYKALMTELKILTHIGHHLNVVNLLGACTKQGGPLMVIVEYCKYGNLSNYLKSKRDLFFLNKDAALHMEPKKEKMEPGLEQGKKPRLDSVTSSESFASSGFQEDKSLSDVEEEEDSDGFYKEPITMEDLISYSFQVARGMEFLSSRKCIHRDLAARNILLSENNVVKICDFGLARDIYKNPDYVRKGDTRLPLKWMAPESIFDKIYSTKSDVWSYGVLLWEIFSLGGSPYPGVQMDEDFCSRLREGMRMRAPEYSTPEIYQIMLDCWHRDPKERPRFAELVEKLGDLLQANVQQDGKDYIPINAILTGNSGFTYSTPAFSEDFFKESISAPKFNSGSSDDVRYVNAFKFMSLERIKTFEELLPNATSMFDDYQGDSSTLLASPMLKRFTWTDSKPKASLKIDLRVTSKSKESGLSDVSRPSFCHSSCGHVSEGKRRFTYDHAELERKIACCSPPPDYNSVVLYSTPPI

VEGF-induced CD144 expression (% of cells), isotype control mAb-treated human melanoma cells	VEGF-induced tube formation, average tube length, isotype control mAb-treated	VEGF-induced tube formation, numbers of tubes formed/microscopy field, isotype control mAb-treated (tubes/microscopy field)	VEGF-induced CD144 expression (% of cells), untreated human melanoma cells	VEGF-induced tube formation, average tube length, untreated	VEGF-induced tube formation, numbers of tubes formed/microscopy field, untreated (tubes/microscopy field)	Substance
57%	86.5 µm	76.7	–	–	–	isotype control mAb (antibody)
–	–	–	64%	92.1 µm	99	vascular endothelial growth factor (VEGF) (from UniProt P15692 27-191) (ligand)
